Results as given in patent US20190375846A1 (ULTRAHUMAN ONE, published 2019).

Assays:
[1] = target: T1, human GITR at the cell surface (human, UniProt Q9Y5U5 26-241); assay: cell-based or functional assay
T1 sequence (looked up): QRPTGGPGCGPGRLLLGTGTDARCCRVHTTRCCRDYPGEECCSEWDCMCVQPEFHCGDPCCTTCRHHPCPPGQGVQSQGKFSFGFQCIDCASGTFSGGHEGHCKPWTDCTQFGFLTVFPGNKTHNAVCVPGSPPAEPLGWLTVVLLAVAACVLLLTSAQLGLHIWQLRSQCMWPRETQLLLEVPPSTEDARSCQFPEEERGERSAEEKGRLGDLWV

[2] = target: cynomolgus monkey GITR at the cell surface (cynomolgus monkey); assay: cell-based or functional assay
[3] = target: T2, human GITR-Fc (human, UniProt Q9Y5U5 26-161); assay: HTRF competition: unlabelled IgG1 titrated 0.003-100 µg/ml against terbium-labelled VH1/VL1 IgG on biotinylated human GITR-Fc with SA-XL665, 665/615 ratio
T2 construct: Recombinant GITR-Fc; also called hGITR-Fc; hGITR; not shown: Fc part
T2 sequence (looked up): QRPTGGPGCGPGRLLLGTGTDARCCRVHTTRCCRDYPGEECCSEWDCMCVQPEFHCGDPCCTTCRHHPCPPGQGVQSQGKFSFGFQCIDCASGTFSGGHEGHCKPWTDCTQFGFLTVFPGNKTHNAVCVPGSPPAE
Protocol: A competition HTRF assay was established to examine epitope competition against VH1/VL1 IgG by grafted and library-derived clones. The purified VH1/VL1 IgG was labelled with terbium using a labelling kit (CisBio) per the manufacturers instructions. The final reaction mix contained biotinylated human GITR-Fc, SA-XL665 (CisBio), terbium-labelled parental […], and competitor IgG of interest, prepared as described above, in a total reaction volume of 20 μl in 1× assay buffer [50 mM sodium phosphate, pH 7.5, 400 mM potassium fluoride, and 0.1% BSA (w/v)]. Reagents were added sequentially on a MiniTrak Liquid Handling Platform (Perkin-Elmer) into 384-well low-volume black plates (Nunc). Reactions proceeded for 1 h at room temperature, and plates were subsequently read on a plate reader with excitation at 340 nm and two emission readings at 615 nm (measuring input donor fluorescence from VH1-VL1-cryptate) and 665 nm (measuring output acceptor fluorescence from SAXL665). Readings were expressed as 665 nm/615 nm ratios.
To examine the competition of the library-derived clones with the unaltered, closest-germline grafted CDRs of VH1/VL1 IgG, an Homogeneous Time Resolved Fluorescence (HTRF) assay was established. This assay incorporated terbium-labelled VH1/VL1 IgG, Biotinylated hGITR-Fc and streptavidin-XL665, in solution-phase binding. […]

[4] = target: T2, human GITR-Fc; assay: direct titration ELISA, coated human GITR-Fc, IgG1
Protocol: To coat Greiner Bio-One High bind ELISA plates, target proteins were diluted to 1 μg/ml in carbonate buffer and added at 100 μl per well, at 4° C., o/n. Coated plates were washed 3× with PBS pH7.4, blocked with 1% BSA in PBS (380 μl/well) for 1 hr at RT, then washed 3× with PBS-Tween 20 (PBST). GITR antibodies (100 μl/well; diluted in PBST) were then added and then incubated 1 hr at RT. Plates were then washed 3× with PBST and goat anti-human kappa chain-HRP added (100 μl/well) at RT, for 1 hr. Plates were then washed 3× with PBST and twice with PBS before the addition of 100 μl TMB per well. Reactions were stopped by adding 100 μl 2M H₂SO₄/well and OD was read on a plate reader at 450 nm. IgG binding analysis via ELISA on negatively charged biomolecular surfaces were performed as previously described (see Mouquet et al., 2010, Nature 467: 591-595).
Retention of GITR-binding function in the purified IgG1 proteins was first examined by titration in direct binding ELISA against human GITR-Fc. […] Importantly, the >100-fold loss of binding function in the VH2 IgG family further illustrated that the HCDR1 could not be fully germ-lined a priori to match the native sequence of the human germline HCDR1 found in the framework used for grafting (IGHV3-7).

B1: D-A6 IgG1 (antibody, V domains shown)
VH: EVQLVESGGGLVQPGGSLRLSCAASGFSLSTSGYGVGWVRQAPGKGLEWLAHIWWDDDKYYVDSVKGRFTISRDNAKNSLYLQMNSLRAEDTAVYYCARTRQYFPFAYWGQGTLVTVSS
VL: EIVLTQSPATLSLSPGERATLSCRASQSVGSNLAWYQQKPGQAPRLLIYSASYRYTGIPARFSGSGSGTDFTLTISSLEPEDFAVYYCQQYSTDPLTFGGGTKVEIK
notes: Human IgG1
EC50 of FcγRIIIa activation, Promega ADCC reporter assay, CHO-K1 target cells expressing human GITR [1]: 15.4 nM
potency against VH1/VL1 IgG1, ADCC reporter assay on human GITR CHO-K1 cells [1]: 2 fold
EC50 of FcγRIIIa activation, Promega ADCC reporter assay, CHO-K1 target cells expressing cyno GITR [2]: 57.9 nM
potency against VH1/VL1 IgG1, ADCC reporter assay on cyno GITR CHO-K1 cells [2]: 2 fold
IC50 (read off the curve) [3]: ~1 µg/mL

B2: chimeric anti-GITR IgG1 mVH/mVL (6C8 murine v-domains) (antibody, V domains shown)
VH: QVTLKESGPGILKPSQTLSLTCSFSGFSLSTSGMGVGWIRQPSGKGLEWLAHIWWDDDKYYNPSLKSQLTISKDTSRNQVFLKITSVDTADAATYYCARTRRYFPFAYWGQGTLVTVSS
VL: DIVMTQSQKFMSTSVGDRVSVTCKASQNVGTNVAWYQQKPGQSPKALIYSASYRYSGVPDRFTGSGSGTDFTLTINNVHSEDLAEYFCQQYNTDPLTFGAGTKLEIK
notes: Full-length human IgG1, kappa; also called GITR-mVH/mVL; chimeric IgG
EC50 [4]: ≥ 0.004 µg/mL
